From US20170342144A1 (Sanofi, published 2017)
Changes are numbered by the printed parent chain. Numbers in names are those of the source.

T1: human TGFβ2 (human, UniProt P61812 303-414)
T1 construct: also called TGFβ2 homodimer
T1 sequence: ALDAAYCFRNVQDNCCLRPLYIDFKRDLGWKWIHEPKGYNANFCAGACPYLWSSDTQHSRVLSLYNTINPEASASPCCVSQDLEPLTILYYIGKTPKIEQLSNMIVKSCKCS

T2: human TGFβ3 (human, UniProt P10600 301-412)
T2 sequence: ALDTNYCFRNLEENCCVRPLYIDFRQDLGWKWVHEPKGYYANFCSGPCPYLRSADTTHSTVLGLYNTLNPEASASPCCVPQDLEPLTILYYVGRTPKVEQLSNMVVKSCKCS

B1: A93R(LC) (antibody, V domains shown)
VH: QVQLVQSGAEVKKPGSSVKVSCKASGYTFSSNVISWVRQAPGQGLEWMGGVIPIVDIANYAQRFKGRVTITADESTSTTYMELSSLRSEDTAVYYCASTLGLVLDAMDYWGQGTLVTVSS
VL: ETVLTQSPGTLSLSPGERATLSCRASQSLGSSYLAWYQQKPGQAPRLLIYGASSRAPGIPDRFSGSGSGTDFTLTISRLEPEDFAVYYCQQYRDSPITFGQGTRLEIK
notes: GC1008 IgG4 variant, light chain substitution
B2: L104R (antibody, V domains shown)
VH: B1 VH with L104R
VL: B1 VL with R93A
notes: GC1008 IgG4 variant
B3: V103R (antibody, V domains shown)
VH: B1 VH with V103R
VL: B1 VL with R93A
notes: GC1008 IgG4 variant
B4: L104K (antibody, V domains shown)
VH: B1 VH with L104K
VL: B1 VL with R93A
notes: GC1008 IgG4 variant
B5: I52H (antibody, V domains shown)
VH: B1 VH with I52H
VL: B1 VL with R93A
notes: GC1008 IgG4 variant
B6: I52K (antibody, V domains shown)
VH: B1 VH with I52K
VL: B1 VL with R93A
notes: GC1008 IgG4 variant
B7: I52W (antibody, V domains shown)
VH: B1 VH with I52W
VL: B1 VL with R93A
notes: GC1008 IgG4 variant
B8: I52R (antibody, V domains shown)
VH: B1 VH with I52R
VL: B1 VL with R93A
notes: GC1008 IgG4 variant
B9: I52C (antibody, V domains shown)
VH: B1 VH with I52C
VL: B1 VL with R93A
notes: GC1008 IgG4 variant
B10: I52E (antibody, V domains shown)
VH: B1 VH with I52E
VL: B1 VL with R93A
notes: GC1008 IgG4 variant
B11: I52G (antibody, V domains shown)
VH: B1 VH with I52G
VL: B1 VL with R93A
notes: GC1008 IgG4 variant
B12: I52N (antibody, V domains shown)
VH: B1 VH with I52N
VL: B1 VL with R93A
notes: GC1008 IgG4 variant
B13: I52D (antibody, V domains shown)
VH: B1 VH with I52D
VL: B1 VL with R93A
notes: GC1008 IgG4 variant
B14: I52A (antibody, V domains shown)
VH: B1 VH with I52A
VL: B1 VL with R93A
notes: GC1008 IgG4 variant
B15: V55K (antibody, V domains shown)
VH: B1 VH with V55K
VL: B1 VL with R93A
notes: GC1008 IgG4 variant
B16: I52S (antibody, V domains shown)
VH: B1 VH with I52S
VL: B1 VL with R93A
notes: GC1008 IgG4 variant
B17: I52Q (antibody, V domains shown)
VH: B1 VH with I52Q
VL: B1 VL with R93A
notes: GC1008 IgG4 variant

Biological target: T3, human TGFβ1 (human, UniProt P01137 279-390)
T3 construct: also called TGFβ1 homodimer
T3 sequence (P01137 279-390 limits assumed): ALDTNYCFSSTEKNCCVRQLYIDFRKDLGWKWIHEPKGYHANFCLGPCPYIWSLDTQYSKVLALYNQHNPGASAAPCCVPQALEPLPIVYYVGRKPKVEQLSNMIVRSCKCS
Assay: Biacore, immobilised TGFβ

Binding result, no binding (tested: 50 nM):
B1, B2, B3, B4

Biological target: T1, human TGFβ2
Assay: Biacore, immobilised TGFβ

Binding result, no binding (tested: 50 nM):
B1, B2, B3, B4

Biological target: T2, human TGFβ3
Assay: Biacore, immobilised TGFβ

Binding result, no binding (tested: 50 nM):
B1, B2, B3, B4

Biological target: T3, human TGFβ1
Assay: Biacore, immobilised TGFβ
Remark: another data set of the same source

Binding result, no binding (tested: 50 nM):
B5, B6, B7, B8, B9, B10, B11, B12, B13, B14, B15, B16, B17

Biological target: T1, human TGFβ2
Assay: Biacore, immobilised TGFβ
Remark: another data set of the same source

Binding result, no binding (tested: 50 nM):
B5, B6, B7, B8, B9, B10, B11, B12, B13, B14, B15, B16, B17

Biological target: T2, human TGFβ3
Assay: Biacore, immobilised TGFβ
Remark: another data set of the same source

Binding result, no binding (tested: 50 nM):
B5, B6, B7, B8, B9, B10, B11, B12, B13, B14, B15, B16, B17
